# Measurements as given in IntAct's records for PubMed 36577757.
# Tests used:
# mrtfa_human MRTFA [1] = target: mrtfa_human MRTFA (UniProt Q969V6)
# mrtfa_human MRTFA [2] = target: mrtfa_human MRTFA (UniProt Q969V6); remark: listed apart in the source
# Chain of UniProt Q969V6 (Q969V6 whole entry): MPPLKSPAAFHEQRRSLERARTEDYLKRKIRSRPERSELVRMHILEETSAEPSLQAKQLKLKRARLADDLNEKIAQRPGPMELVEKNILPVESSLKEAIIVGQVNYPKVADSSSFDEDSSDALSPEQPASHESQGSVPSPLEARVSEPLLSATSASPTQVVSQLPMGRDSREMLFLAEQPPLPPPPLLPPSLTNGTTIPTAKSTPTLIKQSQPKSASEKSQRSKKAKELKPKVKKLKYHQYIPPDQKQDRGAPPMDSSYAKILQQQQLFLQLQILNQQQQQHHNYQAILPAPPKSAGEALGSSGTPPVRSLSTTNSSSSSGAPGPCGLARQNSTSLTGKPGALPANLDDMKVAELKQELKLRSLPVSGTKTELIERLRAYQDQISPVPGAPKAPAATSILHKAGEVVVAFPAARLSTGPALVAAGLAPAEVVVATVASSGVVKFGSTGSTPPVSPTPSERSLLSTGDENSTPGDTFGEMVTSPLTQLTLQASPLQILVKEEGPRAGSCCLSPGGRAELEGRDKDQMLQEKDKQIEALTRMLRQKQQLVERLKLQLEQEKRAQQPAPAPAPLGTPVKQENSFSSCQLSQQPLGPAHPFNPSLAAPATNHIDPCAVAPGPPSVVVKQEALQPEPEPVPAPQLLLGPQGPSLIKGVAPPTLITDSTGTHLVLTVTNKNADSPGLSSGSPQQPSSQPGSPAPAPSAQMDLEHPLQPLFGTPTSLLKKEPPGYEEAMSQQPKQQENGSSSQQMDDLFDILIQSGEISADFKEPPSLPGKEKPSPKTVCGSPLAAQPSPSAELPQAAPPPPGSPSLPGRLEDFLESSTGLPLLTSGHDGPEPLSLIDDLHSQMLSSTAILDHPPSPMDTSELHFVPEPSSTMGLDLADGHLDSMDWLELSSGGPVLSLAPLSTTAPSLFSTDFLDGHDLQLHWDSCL
substance,measurement,setting,value
"Filamin-A (Homo sapiens), P21333 S2152A",effect of a mutation on the interaction,mrtfa_human MRTFA [1],decreasing interaction strength
same,effect of a mutation on the interaction,mrtfa_human MRTFA [2],disrupting interaction strength
